How the values were obtained:
[1] = target: T1, 重组人CD47-his蛋白 (ACRO biosystems, cat#CD7-H5227, MW 15.6 kDa) (human, UniProt Q08722 19-139, biotin-labelled in the ELISA assays (sites not given); unlabelled in Biacore); assay: SPR (Biacore T200), antibody captured on goat anti-mouse IgG, CD47-his in flow
T1 construct: Bought protein; The same catalogue number is used unlabelled (SPR) and biotin-labelled (ELISAs); also called 人CD47蛋白; 生物素标记的人CD47; not shown: His tag

[2] = target: T2, 人CD47 (表面过表达人CD47的293F细胞) (human, UniProt Q08722 19-323); assay: flow cytometry on 293F cells overexpressing human CD47
T2 construct: whole, on cells; also called 表面过表达人CD47的稳定细胞系293F
T2 sequence (Q08722 19-323): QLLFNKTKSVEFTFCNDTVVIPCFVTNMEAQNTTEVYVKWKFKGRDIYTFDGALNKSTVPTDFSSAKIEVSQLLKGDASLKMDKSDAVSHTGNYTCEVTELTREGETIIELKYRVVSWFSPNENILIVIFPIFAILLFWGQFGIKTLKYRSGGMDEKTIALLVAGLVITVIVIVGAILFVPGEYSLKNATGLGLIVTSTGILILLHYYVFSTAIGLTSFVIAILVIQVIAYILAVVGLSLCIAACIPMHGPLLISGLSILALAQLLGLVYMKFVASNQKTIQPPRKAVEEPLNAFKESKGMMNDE

T1 sequence (Q08722 19-139 limits assumed): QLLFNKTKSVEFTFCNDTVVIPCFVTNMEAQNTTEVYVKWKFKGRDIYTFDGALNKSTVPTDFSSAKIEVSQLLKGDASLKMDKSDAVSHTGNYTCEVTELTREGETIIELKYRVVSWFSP

B1: 抗人CD47单克隆抗体1A5 (antibody, V domains shown)
VH: EVQLQQSGAELVRSGASVTLSCTASGFNIKDYYMNWVKQRPEQGLEWIGWIGPENGDTENDPRFQGKATMTADTSSNTAFLQLSSLTSEDTAFYYCNAGGRGGFPYWGQGTLVTVST
VL: DILLTQTPLSLPVSLGDQASFSCRSSQNIVHINGKTYLEWYLQKPGQSPKLLIYRVSNRFSGVPDRFSGSGSGTDFTLKISRVEAEDLGVYYCFQGSHVPRTFGGGTKLEIK
notes: also called 本发明的单克隆抗体1A5; 本发明的抗体1A5
B1: binds [1]; binds [2].
